Data reported in patent US7056679 (ANTYRA, dated 2006).

T1: DGI-2 polypeptide (UniProt Q15004 1-111, limits assumed)
T1 construct: Vector-derived residues or tag of pIVEX2.3 are not described for this construct; also called KIAA0101
T1 sequence (looked up): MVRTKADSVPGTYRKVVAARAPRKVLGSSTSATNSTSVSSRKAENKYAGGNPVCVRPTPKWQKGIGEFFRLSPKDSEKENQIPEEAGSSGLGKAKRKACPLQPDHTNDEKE

B1: DGI-2-20R-4-E82 (peptide)
peptide: DAGIGWVGSMWFPPGCIGACAAAGAPVPYPDPLEPRP
notes: not shown: phage gene III coat protein (pCANTAB5E)
B2: DGI-2-20F-4-E3 (peptide)
peptide: RNWLDKDCVWMGDCGARAGEAAAGAPVPYPDPLEPRP
notes: as for B1
B3: DGI-2-20C-4-H316 (peptide)
peptide: RWSICRGLQYSIPGCAVEDLSDVMAAAAGAPVPYPDPLEPRP
notes: as for B1
B4: DGI-2-40F-3-D11 (peptide)
peptide: LHFGSVMGWRPPGSLWSRPFGQVHPRSWSGSAAAGAPVPYPDPLEPRP
notes: as for B1
B5: DGI-2-20R-4-H12 (peptide)
peptide: MSTLQGPGHLFQMLRRASLGAAAGAPVPYPDPLEPRP
notes: as for B1
B6: DGI-2-20F-3-C1 (peptide)
peptide: GSVLERGCLEFSGFCFSLGHAAAGAPVPYPDPLEPRP
notes: as for B1
B7: DGI-2-20R-3-A9 (peptide)
peptide: LQIVRPAGWKMPGQVGYYIGAAAGAPVPYPDPLEPRP
notes: as for B1
B8: DGI-2-40F-4-F6 (peptide)
peptide: SYRNFAMQSSLQVRRGSVVEDGTCWWEGVRCYSGAAAGAPVPYPDPLEPRP
notes: as for B1
B9: DGI-2-20F-3-C12 (peptide)
peptide: LTPYSLARSWLSGRPSTGATAAAGAPVPYPDPLEPRP
notes: as for B1
B10: DGI-2-20R-3-B7 (peptide)
peptide: SWRLWVSGELQGDRRKGLRGAAAGAPVPYPDPLEPRP
notes: as for B1
B11: DGI-2-40F-3-D72 (peptide)
peptide: MGSLGPFGNINSLASGIGSVRNRPLLPLHGSPAAAGAPVPYPDPLEPRP
notes: as for B1
B12: DGI-2-20R-4-H7 (peptide)
peptide: LSHPMSPLRAASQMALTQGVAAAGAPVPYPDPLEPRP
notes: as for B1
B13: DGL-2-20R-3-B6 (peptide)
peptide: TSCQVMFLAGQHLLSRVPRLAAAGAPVPYPDPLEPRP
notes: as for B1
B14: DGI-2-20R-4-E2 (peptide)
peptide: TANGHRYGGCGLWCKWMSGMAAAGAPVPYPDPLEPRP
notes: as for B1
B15: DGI-2-40F-3-D7 (peptide)
peptide: ALRSLGSGGFGWQAGRASPQGMTHFPYFGWSGMPTARVRPAAAGAPVPYPDPLEPRP
notes: as for B1
B16: DGI-2-40F-3-D6 (peptide)
peptide: GLEPVPFQTDKRIAMGWTREWLVNGYGAAHRRDARMQSGHAAAGAPVPYPDPLEPRP
notes: as for B1
B17: DGI-2-20F-3-B102 (peptide)
peptide: GLRACDTYLGFCVGARRIDDAAAGAPVPYPDPLEPRP
notes: as for B1

How the values were obtained:
DGI-2 polypeptide [1] = target: T1, DGI-2 polypeptide; assay: phage ELISA, 405 nm; DGI-2 signal over LDH signal
Experimental: (§1) For analysis of individual target binders, colonies were picked and phage prepared as described above using helper phage, M13KO7. Ninety-six-well microtiter plates were coated with 500 ng/well of specific target protein, 500 ng/well lactate dehydrogenase (LDH) irrelevant or non-specific target, 500 ng/well of positive control antibody raised against ETAG, and negative control of non-fat milk powder-PBS 2% at 4° C. overnight. Plates were then blocked with 350 microliters/well PBS containing 2% non-fat milk for 1 hr at room temperature. One hundred microliters per well of phage from isolated clones were added and plates were incubated at room temperature for 2 hr after centrifuging samples for 20 minutes at 3500 rpm at 4° C. The phage solution was then removed, and the wells were washed three times with PBS at room temperature. Antibody raised against M13 conjugated to horseradish peroxidase (Pharmacia) was diluted 1:3000 in PBS-Tween and added to each well (100 µl/well). Incubation was for 1 hr at room temperature, followed by washing with PBS-(0.5%) Tween 3 times as described. Color was developed by addition of ABTS solution (100 µl/well; Boehringer, Indianapolis, Ind.). Plates were analyzed at 405 nm. A clone was considered "positive" if the $A405$ of the well was $\geq$2-fold over background.

[2] = target: T2, antibody raised against ETAG; assay: phage ELISA, 405 nm; anti-E-tag antibody coated
T2 construct: read-out of display; also called E-tag antibody; E tag antibody
Experimental: as §1

DGI-2 polypeptide [3] = target: T1, DGI-2 polypeptide; assay: phage ELISA, 405 nm; DGI-2 coated
Experimental: as §1

| Binder | DGI-2/LDH (OD) (DGI-2 polypeptide [1]) [ratio] | ETAG (OD) [2] [OD] | DGI-2 (OD) (DGI-2 polypeptide [3]) |
| --- | --- | --- | --- |
| B1 | 3.7 | 19.6 | 3.9 |
| B2 | 4.1 | 16.9 | 3.8 |
| B3 | 3.9 | 7.2 | 3.8 |
| B4 | 2.9 | 10.5 | 3.8 |
| B5 | 2.8 | 10.9 | 3.7 |
| B6 | 3.4 | 14 | 3.4 |
| B7 | 3.4 | 14.3 | 3.4 |
| B8 | 3.2 | 13.5 | 3.2 |
| B9 | 3.1 | 15.1 | 3.2 |
| B10 | 3 | 11.7 | 3.1 |
| B11 | 2.8 | 14 | 3.1 |
| B12 | 2.6 | 14.1 | 3.1 |
| B13 | 2.7 | 11.7 | 2.8 |
| B14 | 2.5 | 18.2 | 2.7 |
| B15 | 2.6 | 10.3 | 2.6 |
| B16 | 2.6 | 11.4 | 2.5 |
| B17 | 2.5 | 18 | 2.4 |
